Laboratory results from paper doi:10.1101/2021.05.23.445348.

Columns and labels:
Test in all cases: ITC
[1] = molecular target: SARS-CoV-2 RBD K417N (SARS-CoV-2) (UniProt P0DTC2)
[2] = molecular target: SARS-CoV-2 RBD Y453F (SARS-CoV-2) (UniProt P0DTC2)
[3] = molecular target: SARS-CoV-2 RBD T478I (SARS-CoV-2) (UniProt P0DTC2)

CC12.1 single chain variable fragment (scFv)
Kd [1]: 119 nM | Kd [2]: 827 nM | Kd [3]: 5.8 nM
